Data reported in patent publication US20230050440A1.
Residue numbers refer to the chain shown, from its start.

B1: Clone 25 (antibody, V domains shown)
VH: QVQLVQSGAEVKKPGASVKVSCKASGYTFTSYAISWVRQAPGQGLEWMGWISAYNGNTNYAQKLQGRVTMTTDTSTSTAYMELRSLRSDDTAVYYCARDLSSFWSGDVLGAFDIWGQGTMVTVSS
VL: DIQMTQSPSSLSASVGDRVTITCRASQSISSYLNWYQQKPGKAPKLLIYAASSLQSGVPSRFSGSGSGTDFTLTISSLQPEDFATYYCQQSVPPRTFGGGTKVEIK
B2: Clone 25E (antibody, V domains shown)
VH: B1 VH with S35A, D99S, L100G
VL: B1 VL
B3: Clone 25A (antibody, V domains shown)
VH: B1 VH with N59K
VL: B1 VL
B4: Clone 25C (antibody, V domains shown)
VH: B1 VH with A33P, S35G, A53S, D99G, L100A
VL: B1 VL
B5: Clone 25B (antibody, V domains shown)
VH: B1 VH with A33P, S35G, A53S
VL: B1 VL
B6: Clone 25D (antibody, V domains shown)
VH: B1 VH with A33P, S35G, A53S, S101K
VL: B1 VL
B7: Clone 16D (antibody, V domains shown)
VH: QVQLVQSGAEVKKPGSSVKVSCKASGGTFSDYPISWVRQAPGQGLEWMGGIIPIVGGANYAQKFQGRVTITADESTSTAYMELSSLRSEDTAVYYCTRQSTWHKLFGTDVWGQGTTVTVSS
VL: DIQMTQSPSSVSASVGDRVTITCRASQGISSWLAWYQQKPGKAPKLLIYAASSLQSGVPSRFSGSGSGTDFTLTISSLQPEDFATYYCQQGDSLPPTFGGGTKVEIK
B8: Clone 16E (antibody, V domains shown)
VH: B7 VH with T97A, L105V, F106Y
VL: B7 VL
B9: Clone 16C (antibody, V domains shown)
VH: B7 VH with S30R, D31E, P33A, I52H, V55F, G57T, N59R, F106Y
VL: B7 VL
B10: Clone 22 (antibody, V domains shown)
VH: QVQLQESGPGLVKPSETLSLTCAVSGYSISSGYYWAWIRQPPGKGLEWIGSIYHSGSTYYNPSLKSRVTISVDTSKNQFSLKLSSVTAADTAVYYCARQGYYYGSSGSVDFDLWGRGTLVTVSS
VL: DIQMTQSPSSVSASVGDRVTITCRASQGISSWLAWYQQKPGKAPKLLIYAASNLQSGVPSRFSGSGSGTDFTLTISSLQPEDFATYYCQQANSLPPWTFGGGTKVEIK
B11: Clone 18 (antibody, V domains shown)
VH: QVQLVQSGAEVKKPGASVKVSCKASGYTFTSYYMSWVRQAPGQGLEWMGIINPSGGSTSYAQKFQGRVTMTRDTSTSTVYMELSSLRSEDTAVYYCARVRYGYADGMDVWGQGTTVTVSS
VL: B7 VL with V11L, G28S, W32Y, A34N, A50G, G91V, D92Y, S93H, P96F

Each binder was assayed against mouse TIGIT expressed on cells (mouse) (UniProt P86176) (assay: flow cytometry, titration on activated mouse splenic T cells).
mouse TIGIT expressed on cells (mouse), sequence (P86176 other isoform, or with tags, fused parts or gaps limits assumed, form in doubt): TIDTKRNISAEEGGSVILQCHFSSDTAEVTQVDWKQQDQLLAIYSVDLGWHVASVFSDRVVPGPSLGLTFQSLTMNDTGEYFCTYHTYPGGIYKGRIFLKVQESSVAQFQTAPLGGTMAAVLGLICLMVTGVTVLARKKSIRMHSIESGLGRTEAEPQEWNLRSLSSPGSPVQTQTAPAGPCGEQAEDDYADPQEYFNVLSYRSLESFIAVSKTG

Row | EC50 | Binder
1 | 2.28 µg/mL | B1

These binders were tested against mouse TIGIT expressed on cells (mouse) (UniProt P86176) (assay: flow cytometry titration, HEK 293 cells expressing mouse TIGIT).

Row | EC50 | Binder
2 | 0.24 µg/mL | B1

The binders below were run against dimeric mouse TIGIT-Fc (R&D Systems, 7267-TG) (mouse) (UniProt P86176) (assay: BLI (ForteBio), IgG on sensor, avid).
dimeric mouse TIGIT-Fc (R&D Systems, 7267-TG) (mouse), sequence (P86176 other isoform, or with tags, fused parts or gaps limits assumed, form in doubt): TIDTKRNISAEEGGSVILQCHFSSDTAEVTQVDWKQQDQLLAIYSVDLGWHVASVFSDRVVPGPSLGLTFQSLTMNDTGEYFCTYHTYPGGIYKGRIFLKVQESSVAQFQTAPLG

Row | Kd | Binder
3 | 967 pM | B1
4 | 566 pM | B2
5 | 823 pM | B3
6 | 494 pM | B4
7 | 719 pM | B5
8 | 580 pM | B6
9 | 2630 pM | B7
10 | 3700 pM | B8
11 | 801 pM | B9

What follows are binders tested against dimeric mouse TIGIT-Fc (R&D Systems, 7267-TG) (mouse) (UniProt P86176) (assay: BLI (ForteBio Octet RED384), IgG on AHQ sensor, 100 nM antigen, 1:1 model).

Row | Kd | Binder
12 | 10500 pM | B10
13 | 1100 pM | B1
14 | 8820 pM | B11

The binders below were run against mouse TIGIT expressed on cells (mouse) (UniProt P86176) (assay: flow cytometry on HEK 293 cells expressing the target, MFI over parental HEK 293).

Row | FOB (Fold Over Background) | Binder
15 | 117 fold | B1
16 | 116 fold | B2
17 | 119 fold | B3
18 | 124 fold | B4
19 | 129 fold | B5
20 | 137 fold | B6
21 | 63 fold | B7
22 | 56 fold | B8
23 | 99 fold | B9
